Results on three proteins are retold here after publication PMC2532717 (Nucleic Acids Research, 2008).

A word on the stoichiometry N: it is a count of units in the complex or per binding partner.

Positions count from the first letter of the chain named.

The series concerns the molecule itself. Description: cross-linking.

B1: RecUK56A (enzyme, B. subtilis)
chain: MIRYPNGKTFQPKHSVSSQNSQKRAPSYSNRGMTLEDDLNETNKYYLTNQIAVIHAKPTPVQIVNVHYPKRSAAVIKEAYFKQSSTTDYNGIYKGRYIDFEAKETKNKTSFPLQNFHDHQIEHMKQVKAQDGICFVIISAFDQVYFLEADKLFYFWDRKEKNGRKSIRKDELEETAYPISLGYAPRIDYISIIEQLYFSPSSGAKG
Take B1: the “stoichiometry N” value turned out to be 2.

B2: RecUR71A (enzyme, B. subtilis)
chain: B1 chain with A56K, R71A
As to B2, the “stoichiometry N” value was found to be 2.

B3: RecA (natural protein, B. subtilis, UniProt P16971 1-348, looked up)
chain: MSDRQAALDMALKQIEKQFGKGSIMKLGEKTDTRISTVPSGSLALDTALGIGGYPRGRIIEVYGPESSGKTTVALHAIAEVQQQGGQAAFIDAEHALDPVYAQKLGVNIEELLLSQPDTGEQALEIAEALVRSGAVDIVVVDSVAALVPKAEIEGDMGDSHVGLQARLMSQALRKLSGAINKSKTIAIFINQIREKVGVMFGNPETTPGGRALKFYSSVRLEVRRAEQLKQGNDVMGNKTKIKVVKNKVAPPFRTAEVDIMYGEGISKEGEIIDLGTELDIVQKSGSWYSYEEERLGQGRENAKQFLKENKDIMLMIQEQIREHYGLDNNGVVQQQAEETQEELEFEE
On to B3, for which the binding result was “binds”.
